The values below come from article PMC11847541, “Liver fatty acid binding protein FABP1 transfers substrates to cytochrome P450 4A11 for catalysis” (The Journal of Biological Chemistry, 2025).

Broadly, the Kd is the constant that tells how readily two partners part at equilibrium.

Assay [1] addresses T1, FABP1 (Homo sapiens, UniProt P07148).
T1 construct: GST (N, cleaved yes); made in house; host or cells: Escherichia coli DH5α
T1 sequence (P07148 with tags, fused parts or gaps): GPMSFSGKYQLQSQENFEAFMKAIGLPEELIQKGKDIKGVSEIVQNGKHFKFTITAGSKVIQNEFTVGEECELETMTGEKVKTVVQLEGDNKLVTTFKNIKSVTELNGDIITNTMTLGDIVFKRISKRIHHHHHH
Also on record: method as in PMID 10852718. The note with it: ADIFAB system; cited from earlier work.

Assay [2] concerns the target T2, P450 4A11 (Homo sapiens, UniProt Q02928).
T2 construct: made in house; host or cells: E. coli
T2 sequence (Q02928 5-519): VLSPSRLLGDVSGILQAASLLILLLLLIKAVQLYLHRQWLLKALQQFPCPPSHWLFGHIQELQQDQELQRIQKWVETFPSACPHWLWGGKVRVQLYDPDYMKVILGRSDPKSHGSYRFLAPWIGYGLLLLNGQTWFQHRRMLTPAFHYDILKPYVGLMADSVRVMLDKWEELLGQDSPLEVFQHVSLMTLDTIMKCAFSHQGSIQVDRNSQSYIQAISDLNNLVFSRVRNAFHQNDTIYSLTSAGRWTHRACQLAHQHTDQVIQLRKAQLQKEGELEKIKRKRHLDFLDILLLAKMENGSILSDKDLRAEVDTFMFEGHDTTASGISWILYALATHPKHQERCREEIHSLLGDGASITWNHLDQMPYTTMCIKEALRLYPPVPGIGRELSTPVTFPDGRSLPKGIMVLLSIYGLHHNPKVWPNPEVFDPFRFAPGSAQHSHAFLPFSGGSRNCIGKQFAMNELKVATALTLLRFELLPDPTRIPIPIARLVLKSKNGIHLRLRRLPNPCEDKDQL
T2 sequence (P07148 with tags, fused parts or gaps partner): T1 sequence (P07148 with tags, fused parts or gaps)
Put plainly: Alexa-FABP1 and P450 4A11 association kinetics (stopped-flow fluorescence). The class given is binding. The procedure:
We then investigated whether the rate of protein–protein association could be estimated using our fluorescent construct. A solution of Alexa-FABP1 (125 nM final concentration) was rapidly mixed with P450 4A11 (125 Nm final concentration), and Alexa-488 fluorescence was monitored over time. The data were fit to a single exponential equation and yielded an association rate of 2.0 ± 0.2 s^−1 (Fig. 10B).
To estimate a rate of interaction for FABP1 and P450, we loaded the protein–protein binding data (Fig. 10B) and fit the data to a simple model, E+F↔EF , as described in the Experimental procedures section. The software fit a kon rate of 2.0 × 10^7 M^−1 s^−1, close to that estimated by using the extracted binding rate ∼2 s^−1 at the concentration (0.125 μM) of either reaction component (i.e., 2 s^−1/0.125 μM = 16 μM^−1 s^−1 = 1.6 × 10^7 M^−1 s^−1).
Mixing solutions (2 ml) of (A) Alexa-FABP1 (0.25 μM [estimated by A280 prior to conjugation reaction, accounting for dilution, and assuming no protein loss during the reaction as described earlier]) and (B) P450 4A11 (0.25 μM) were prepared in potassium phosphate buffer (100 mM, pH 7.4) and loaded into the stopped-flow spectrofluorometer described earlier. The instrument (1.24 mm slit width) was set with an excitation wavelength of 470 nm and Oriel end-on filter for emission >495 nm. The fluorescence maximum of Alexa-FABP1 is 510 nm as described earlier, and stimulation is observed upon protein–protein binding (see “Titrations of Alexa-FABP1 with P450 4A11”). At least six replicate measurements were recorded, the spectra were processed such that the fluorescence gain (from DAUDA binding) began at an (x, y) intercept of (0, 0), and the spectra were averaged. A smoothing factor of 0.4 was applied to the data (in Microsoft Excel), and the resulting curve was fit to a single exponential plot in GraphPad Prism, and the rate of association was extracted. The data were loaded into KinTek Explorer and fit to a minimal kinetic model of protein–protein association (i.e., E+F↔EF ), and a second-order rate constant for the association was extracted.

On the set-up of assay [3]: method as in PMID 2335507. The note with it: cited from earlier work.

With `CCCCCCCCCCCCCCCC(=O)O` [Palmitate (C16), palmitate], in assay [1], the Kd was 60 nM.

Regarding “FABP1: delipidated recombinant liver fatty acid binding protein with C-terminal hexahistidine tag”, the “rate of protein–protein association” value in assay [2] (Alexa-FABP1 0.125 μM, P450 4A11 0.125 μM, single exponential) was around 2 s⁻¹. In addition, the “kon of FABP1–P450 4A11 association (k6)” value in assay [2] (KinTek fit to E+F↔EF) is listed as 2.0 × 10^7 (k6) M^−1 s^−1. In addition, the “kon of FABP1–P450 4A11 association” value in assay [2] (binding rate ∼2 s^−1 divided by 0.125 μM) came to 1.6e+07 M⁻¹ s⁻¹. Moreover, the “koff of FABP1–P450 4A11 (k-6)” value in assay [2] (calculated from kon and Kd) is given as 2.4 (k-6) s^−1. Besides, in assay [3], the “rate of FABP1 lipid transfer to phospholipid membranes” value was around 0.005 s⁻¹.
